The nature of the data set: protein stability index of a GFP-peptide fusion (yeast GPS) (PSI 1-4); higher = more stable; sorted into four equal gates, so the index is relative within each strain. In outline:
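The protein stability index combines read frequencies across sorting gates, each weighted by its gate number and then summed. To obtain those frequencies, a pooled yeast library of GFP fusions to tiled 17-residue yeast protein peptides, on a plasmid also expressing Cherry, was grown to mid-log phase in leucine-free medium. The cells were sorted into four equal gates by GFP/Cherry ratio before plasmid amplification by PCR and Illumina sequencing.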

Results on 25 sequences are retold here after the supplement of paper PMC9732359.

± gives the uncertainty stated by the source.

Turning to ESYKPSVQLPDMAKLKK [SWI3], the protein stability index runs as follows: (doa10∆) 2.94 ± 0.081; (pdr5∆) 2.9 ± 0.081; (san1∆) 2.81 ± 0.06; (ubr1∆) 2.79 ± 0.068.
As to ETGYMSRRLMKSLEDLS [RPO31], the protein stability index stood at 2.45 ± 0.12 (doa10∆), 3.13 ± 0.25 (pdr5∆) and 3.02 ± 0.15 (san1∆).
In the case of ETIKMKELDQELIIDPL [BRN1], the protein stability index reads like this: (doa10∆) 2.98 ± 0.12; (pdr5∆) 3.04 ± 0.15; (san1∆) 2.6 ± 0.26; (ubr1∆) 3.01 ± 0.064.
On the same counts, the results for ETKDIRKQIQLLKKIIF [SRB4] are 2.34 ± 0.052, 2.43 ± 0.044, 2.42 ± 0.045 and 2.39 ± 0.039.
For ETQFKLSRPYKALKTNI [CDC53], the protein stability index (doa10∆) turned out to be 2.19 ± 0.045, the protein stability index (pdr5∆) was found to be 2.39 ± 0.051, the protein stability index (san1∆) came out at 2.23 ± 0.05 and the protein stability index (ubr1∆) was determined as 2.45 ± 0.052.
On to ETQYFWKLLNQLVLRGL [YJR042W/NUP85], for which the protein stability index was 2.18 ± 0.19 (doa10∆), 1.26 ± 0.074 (pdr5∆), 1.26 ± 0.11 (san1∆) and 1.16 ± 0.1 (ubr1∆).
Turning to ETSCDNYHPMNIDETSD [SMC4], the protein stability index reads like this: (doa10∆) 3.02 ± 0.064; (pdr5∆) 3.16 ± 0.052; (san1∆) 3.15 ± 0.041; (ubr1∆) 3.17 ± 0.051.
As to ETSGVTTALLKDEEIEK [MED8], the protein stability index is, setting by setting: (doa10∆) 3.2 ± 0.097; (pdr5∆) 3.05 ± 0.18; (san1∆) 2.84 ± 0.17; (ubr1∆) 3.63 ± 0.11.
For the sequence ETTTEEDSENPSDWQRN [ITC1], the protein stability index is, setting by setting: (doa10∆) 3.31 ± 0.17; (pdr5∆) 3.31 ± 0.095; (san1∆) 3.06 ± 0.11; (ubr1∆) 3.38 ± 0.083.
As to EVALFSQKAKLMTFNAE [YLR335W/NUP2], the protein stability index stood at 2.27 ± 0.08 (doa10∆), 1.47 ± 0.057 (pdr5∆), 1.5 ± 0.1 (san1∆) and 1.4 ± 0.085 (ubr1∆).
Regarding EVAQLGSLACDTADEAK [RPB4], the protein stability index is 3.49 ± 0.15 (doa10∆), 3.28 ± 0.13 (pdr5∆), 3.28 ± 0.17 (san1∆) and 2.73 ± 0.11 (ubr1∆).
Taken in the same sequence, the figures for EVDYEDKDNPVDSRNET [SRB4] were 3.46 ± 0.19, 2.99 ± 0.17, 3.47 ± 0.12 and 3.33 ± 0.25.
For EVEVSTRDLFDLEKDRA [RPO31], the protein stability index runs as follows: (doa10∆) 3.07 ± 0.052; (pdr5∆) 3.37 ± 0.061; (san1∆) 3.28 ± 0.042; (ubr1∆) 3.23 ± 0.048.
Taken in the same sequence, the figures for EVIFSFEGTPPFSLTYV [YMR129W/POM152] were 2.09 ± 0.051, 2.21 ± 0.063, 2.11 ± 0.083 and 2.25 ± 0.047.
On to EVKEQLGILKKKRFDEF [SMC4], for which the protein stability index turned out to be 2.68 ± 0.22 (pdr5∆), 2.35 ± 0.23 (san1∆) and 3.03 ± 0.12 (ubr1∆).
As to EVQCTSTPYLEILVEES [PCI8], the protein stability index came to 2.3 ± 0.067 (doa10∆), 2.96 ± 0.18 (pdr5∆), 2.33 ± 0.14 (san1∆) and 2.64 ± 0.083 (ubr1∆).
For the sequence EVSTSTSMTGDANLLEE [SWI3], the protein stability index was determined as 3.09 ± 0.13 (doa10∆), 3.23 ± 0.11 (pdr5∆), 3.24 ± 0.042 (san1∆) and 3.3 ± 0.041 (ubr1∆).
Regarding EVTEEQAEATEWAEENA [RPS0A], the protein stability index was determined as 3.48 ± 0.13 (doa10∆), 3.51 ± 0.1 (pdr5∆), 2.99 ± 0.13 (san1∆) and 3.62 ± 0.095 (ubr1∆).
Taken in the same sequence, the figures for EVVEAVTVVDTPPVVVV [RPL3] were 1.36 ± 0.05, 1.67 ± 0.05, 1.48 ± 0.095 and 1.47 ± 0.036.
As to EVYEALKEVLYNDSATS [RPN2], the protein stability index runs as follows: (doa10∆) 3.34 ± 0.18; (pdr5∆) 3.45 ± 0.15; (ubr1∆) 3.46 ± 0.08.
For EVYMRYRNFMVNSYRLN [SWI3], the protein stability index by setting is: (doa10∆) 2.19 ± 0.062; (pdr5∆) 1.62 ± 0.06; (san1∆) 1.46 ± 0.099; (ubr1∆) 1.44 ± 0.097.
On the same counts, the results for EVYTKTIEVLDEVITEG [POP7] are 2.84 ± 0.069, 3.12 ± 0.064, 3.15 ± 0.053 and 3.03 ± 0.067.
Taken in the same sequence, the figures for EWVKLHRLLQRALFRQL [RMP1] were 1.47 ± 0.25, 1.58 ± 0.21, 2.86 ± 0.14 and 2.16 ± 0.14.
EYEKRNHGGSLGKYDLT [SRP68]: the protein stability index runs as follows: (doa10∆) 2.81 ± 0.18; (pdr5∆) 2.56 ± 0.15; (san1∆) 2.15 ± 0.14; (ubr1∆) 1.3 ± 0.14.
Turning to EYIFEAHEIIKREEKAM [CDC53], the protein stability index turned out to be 1.77 ± 0.039 (doa10∆), 2.39 ± 0.088 (pdr5∆), 2.54 ± 0.086 (san1∆) and 2.28 ± 0.043 (ubr1∆).
